# Reference: the DeepSol protein solubility set
# Experiment: soluble on expression in E. coli; label from the status in PepcDB or PDB records
row,Sequence,soluble on expression in E. coli
1,SSGNHIFKGRAAGIAVNENGKGLITENVIRENQWGGVDIRRGGIPVLRSNLICFGYSDGVVVGDEGKGLIEGNTIYANKGCGVWMMSSSLPHVTSNHVSYNGLYGVAVFSQKDGSSELPRGHRAQENFSEDGDAILWETELEKEDDPLRRPITIALVESNSINHNGASGLYVQSSEALHVITNVIHANGDRGITVAQSSQPTRVANNSISCNRQSGVKVEAQCKVELRGNGIYDNRGHGIITKGDSTIVIENDIIGNRGSGLQLLPRSDTKVIKNRIHSFRAYGIAVRGRAKALVQENIIFQGKTSKTIFQQISNNRECIMQNNKFLVFKKKSDTWR,soluble
2,SSNQTPYIGSKISLISKLDIRYEGILYTVDTNDSTIALAKVRSFGTEKRPTANPVAARDDVYEYIIFKASDIKDLIVCDTPKMANIGGGLPYDPAIISVSSRSAPASDGAPAASAGSSRAGTPSRNSPLGQIIQNQRPGRGGYQQNFQANRGYNNYRGGFAGGYNNQRGHNNYGVPRVNHREKLKFESDFDFEKANEKFQEVLVDNLEKLNIEDKAEPEVEEKKDAAFYDKKTSFFDNISCESLEKAEGKTGRPDWKKERETNQETFGHNAVRSLNYRRGFGGRGRGGNRGYGGYNNGYQHQHQHRGGYNGGYRQNNGGYRRGGYAPRDNQGNTAAAAEQ,not soluble
3,SSRTFTEQLNALLELGCETLGSSFGTLSRVHGDEYVFEAVTAPTTADLEAGRTTSIEDLPNCRHVVEHREPLAIRDVEADAPDLADPEWGIVNYIGAPVVVDGAVYGTFCFYGLEPRTAEFTQWDLTFVRLLSDWAGYELERQRHSEQRDALNTAF,not soluble
4,SSSPPEGKLETKAGHPPAVKAGGMRIVQKHPHTGDGKEERDKDDQEWESTSPPKPTVFISGVIARGDKDFPPAAAQVAHQKPHASMDKHVSPRTQHIQQPRK,soluble
5,STDDKDVLRDVWFGRIPTCFTLYQDEITEREAEPYYLLLPRVSYLTLVTDKVKKHFQKVMRQEDVSEIWFEYEGTPLKWHYPIGLLFDLLASSSALPWNITVHFKSFPEKDLLHCPSKDAVEAHFMSCMKEADALKHKSQVINEMQKKDHKQLWMGLQNDRFDQFWAINRKLMEYPPEENGFRYIPFRIYQTTTERPFIQKLFRPVAADGQLHTLGDLLREVCPSAVAPEDGEKRSQVMIHGIEPMLETPLQWLSEHLSYPDNFLHISIVPQPTD,soluble
6,STVSEAYSPPLFSIAPMMGWTDNHYRTLARLITKHAWLYTEMLAAETIVYQEDNLDSFLAFSPDQHPIVLQIGGRNLENLAKATRLANAYAYDEINFNCGCPSPKVSGRGCFGALLMLDPKFVGEAMSVIAANTNAAVTVKCRIGVDDHDSYNELCDFIHIVSSLSPTKHFIIHSRKALLSGLSPSDNRRIPPLKCVQKVFLCPFA,soluble
7,SVGTAGISLLLLWYHKVRKPGIAMKLPEFLSLGNTFNSITLQDEIHDDQGTTVIFQERQLQILEKLNELLTNMEELKEEIRFLKEAIPKLEEYIQDELGGKITVHKISPQHRARKRRLPTIQSSATSNSSEEAESEGGYITANTDTEEQSFPVPKAFNTRVEELNLDVLLQKVDHLRMSESGKSESFELLRDHKEKFRDEIEFMWRFARAYGDMYELSTNTQEKKHYANIGKTLSERAINRAPMNGHCHLWYAVLCGYVSEFEGLQNKINYGHLFKEHLDIAIKLLPEEPFLYYLKGRYCYTVSKLSWIEKKMAATLFGKIPSSTVQEALHNFLKAEELCPGYSNPNYMYLAKCYTDLEENQNALKFCNLALLLPTVTKEDKEAQKEMQKIMTSLKR,soluble
8,SVISESMDILFRIRGGLDLAFQLATPNEIFLKKALKHVLSDLSTKLSSNALVFRICHSSVYIWPSSDINTIPGELTDASACKTILRFIQFEPEEDIKRKFMRKKDKKLSDMHQIVNIDLMLEMSTSLAAVTPIIERESGGHHYVNMTLPVDAVISVAPEETWGKVRKLLVDAIHNQLTDMEKCILKYMKGTSIVVPEPLHFLLPGKKNLVTISYPSGIPDGQLQAYRKELHDLFNLPHDRPYFKRSNAYHFPDEPYKDGYIRNPHTYLNPPNMETGMIYVVQGIYGYHHYMQDRIDDNGWGCAYRSLQTICSWFKHQGYTERSIPTHREIQQALVDAGDKPATFVGSRQWIGSIEVQLVLNQLIGITSKILFVSQGSEIASQGRELANHFQSEGTPVMIGGGVLAHTILGVAWNEITGQIKFLILDPHYTGAEDLQVILEKGWCGWKGPDFWNKDAYYNLCLPQRPNMI,not soluble
9,SVSTTFRRIVSPCWRPFGIGEDSSPGSDDTNGRLDGLLWYKDSGNHITGEFSMAVVQANNLLEDHSQLESGPISLHESGPEATFVGVYDGHGGPEAARFVNDRLFYNIKRYTSEQRGMSPDVITRGFVATEEEFLGLVQEQWKTKPQIASVGACCLVGIVCNGLLYVANAGDSRVVLGKVANPFKELKAVQLSTEHNASIESVREELRLLHPDDPNIVVLKHKVWRVKGIIQVSRSIGDAYLKRAEFNQEPLLPKFRVPERFEKPIMRAEPTITVHKIHPEDQFLIFASDGLWEHLSNQEAVDIVNSCPRNGVARKLVKAALQEAAKKREMRYSDLEKIERGIRRHFHDDITVIVVFLHATNFATRTPISVKGGGLLSAHNPVL,soluble
10,SVYINRMTGLSTFVAPTDDLHTACTKDLTTVAVDVLLGNDAVDAAAAAVSEPLQSLFSEWSNPVFARYPEVAVDVSSGQAESLAVKIHNVLYPYRFTKEMIHSVKVLQQVDNKFIACLMSTRMDEDGRTGGNLLVLVDQHAAHERIRLEQLITDSYEKQDPQSAGRKKLLSSTIIPPLAITVSEEQRRLLRN,soluble
11,SYIDIPPEGSETKNRHNANNPSDVLVIENKHLTKEWPSGGQMMVNNLTAKYTSDGRAVLQDLSFSVNAGQRVGLLGRTGAGKSTLLSALLRLLSTEGEIQIDGISWNSVSLQKWRKAFGVIPQKVFVFSGTFRKNLDPYEQWSDEEIWKVTEEVGLKSMIEQFPDKLNFVLVDGGYILSNGHKQLMCLARSILSKAKILLLDEPTAHLDPVTFQIIRKTLKHTFSNCTVILSEHRVEALLECQQFLVIEGCSVKQFDALQKLLTEASLFKQVFGHLDRAKLFTAHRRNSSKRKTRPKISALQ,not soluble
12,TDDVEEDGEPSYKRVAEPEEDESAKPFGGEKAKAARPEPAVKGVRHTSPAPTAAPEKKTSWWDSFKAWLKRIFGGSETQAAPAAETSEKRSTANRSGSRANNRRQNPRRSKREGSKVEVREVAGKTAGQEARADKAETRNNGNRRRNERGDRAAERANEAEIQSRNVQPAATVADAAPSETEVQTGKRRRNGSRSERGQTAPETATVAETTVQTAENTPSEPHTAEDKGSKPKSERNRRERDSRDAKERRERNNQRDRRQNGKKRNIPSAAKIEQYLNIHDTADKVRSAAAHVFGETDANAPITVSIADPVAERDLPTASPAVSNGDAPVYDAAEKIRRATAAILPEGATPKAEAQEMPSETATFTAAAEQARETAQTGGLVLIETDPAALKAWAAQPEVQAGRGLRRSEQPKPSEVATVPAEEMIQVETRQG,not soluble
13,TEDSLMPEEEFLRRNKGPVSIKVQVPNMQDKTEWKLNGQGLVFTLPLTDQVSVIKVKIHEATGMPAGKQKLQYEGIFIKDSNSLAYYNMASGAVIHLALKER,soluble
14,TEKTKAVETTDVALAIDTLVQNGLKALDEMRQLNQEQVDYIVAKASVAALDAHGELALHAVEETGRGVFEDKATKNLFACEHVVNNMRHTKTVGVIEEDDVTGLTLIAEPVGVVCGITPTTNPTSTAIFKSLISLKTRNPIIFAFHPSAQESSAHAARIVRDAAIAAGAPENCVQWIEQPSIDATNALMNHDGIATILATGGNAMVKAAYSCGKPALGVGAGNVPAYVEKSANIRQAAHDIVMSKSFDNGMVCASE,not soluble
15,TETTSFLITKFSPDQQNLIFQGDGYTTKEKLTLTKAVKNTVGRALYSSPIHIWDRETGNVANFVTSFTFVINAPNSYNVADGFTFFIAPVDTKPQTGGGYLGVFNSAEYDKTTQTVAVEFDTFYNAAWDPSNRDRHIGIDVNSIKSVNTKSWKLQNGEEANVVIAFNAATNVLTVSLTYPN,soluble
16,TGAQTKLTQTGAITTVNVDHLKANPSSSIVNTLAGNVAGVLAMQTSGQPGKNVSEFWIRGISTFGASTSAYVLVDGFERSMDEINIEDIESFSVLKDASATAIYGSKGANGVVLITTKHGKAG,not soluble
17,TGIEQLEFQRESSVSTTLQGVCEPILAILVQGKKEALLCDETYRYSAAQYLVVSVDLPLSAFIVEATPEKPYLGFKLNLDPRQLCDIITAQTNVIEEKKNSVRGLFVSTIDAPLLDCAMRLTRLLDTPQDIPILAPMIIREIYYRLLMGEQGEAV,not soluble
18,TGSIGSAARKILLAKTDVQLTLYSRRADRLKLIVDRETAVAGSVTDDDQLDQAIKGQDFVFVALNGDMDSFAAHIISAMERNGIQRLIFITTMGIYQEIPAWLGDSPEPYHNPILKSFRQAADRIEQSDLNYTIIRPGWYNN,not soluble
19,TIPISDKITLYIGRNSANNEKLTFGFAKPDDLWLHARGASGSHCVLKGATMRHTSEIQRAAEIAAWHSSAKHSELVPVICTQKKYLKK,not soluble
20,TIVYDKDGDKAGELSSTDATFVSIDKISKNLQNAVVSIEDRRFYEHKGFDLKGIARAGVNLITNGGISGGGSTITQQLAKNALLTQEQTFTRKAKEIFMAREIEKTYSKDEIMEMYLNRSYFGNGEWGVENASLKYFGKPAADLNIPEAATIAGLLQAPSAYDPYQHI,not soluble
21,TKTTTQGAKSGVFDTVDEAVQAAVIAQNCYKEKSLEERRNVVKAIREALYPEIETIATRAVAETGMGNVTDKILKNTLAIEKTPGVEDLYTEVATGDNGMTLYELSPYGVIGAVAPSTNPTETLICNSIGMLAAGNAVFYSPHPGAKNISLWLIEKLNTIVRDSCGIDNLIVTVAKPSIQAAQEMMNHPKVPLLVITGGPGVVLQAMQSGKKVIGAGAGNPPSIVDETANIEKAAADIVDGASFDHNILCIAE,not soluble
22,TLDPNAQQTAYEQLSQSGYEGAVVALRPSTGEVLAMASSPSYDPNQIVDPATAEDAWAEYTSTEGAPLLNHATQESLPPGSIFKIITTAAALENGYSADSTVTAEAAVTLPGTNTTLTNYGGQTCAGGGTTTLLTAFQLSCNTAFVETGIDVGADALRASAEDFGVGQTYSLGLDNVPGGLGEIPDDAALGQSSIGQRDVQMNVLQAAVMAGTVSNGGVRMEPYLVSRVTGQDLSELSTHKPKSVGGVEPEIAEQLKTLMEASERNTSGYTGIQIASKTGTAEHGDENTPPHTWYVAFNNDIAVAVLVKDGGGFGTSATGGQVAAPIGRAVLQAAGGF,not soluble
23,TLIFDREEKEAGALSGQKGTYVELTDISKNLQNAVIATEDRSFYKNDGINYGRFFLAIVTAGRSGGGSTITQQLAKNAYLSQDQTVERKAKEFFLALELSKKYSKEQILTMYLNNAYFGNGVWGVEDASKKYFGVSASEVSLDQAATLAGMLKGPELYNPLNSV,not soluble
24,TLIHIYDTSEPELDVQVTGYQWKWQYKYLGQDVEYFSNLATPQDQIHNRQAKDEHYLLEVDEPLVLPVGTKVRFLITSSDVIHSWWVPAFAVKRDAIPGFVNEAWTKVDEPGIYRGQCAELCGKDHGFMPIVVDVKPKAEFDQWLAKRKEEAAKVKELTSKEWTKEELVARGDKVYHTICAACHQAEGQGMPPMFPALKGSKIVTGPKEHHLEVVFNGVPGTAMAAFGKQLNEVDLAAVITYERNAWGNDDGDMVTPKDVVAYKQK,not soluble
25,TLVRVKKSAATLGIAIEGGANTRQPLPRIVTIQRGGSAHNCGQLKVGHVILEVNGLTLRGKEHREAARIIAEAFKTKDRDYIDFLVTEFN,soluble
